# Key:
# [1] = target: N-terminally His-tagged, full-length TraE (VirB8 homolog) from plasmid pKM101 (plasmid pKM101); test: negative-stain EM
# [2] = target: periplasmic domain of TraE (plasmid pKM101); test: cross-linking
Substance,stoichiometry N [1],stoichiometry N [2]
"N-terminally His-tagged, full-length TraE (VirB8 homolog) from plasmid pKM101 (natural protein)",6,
periplasmic domain of TraE (domain or fragment),,2
